These results are taken from article PMC6737007.

Broadly, the stoichiometry N is the number of molecules, sites or subunits per partner or assembly.

Assay [1] addresses second voltage-sensing domain (VSD-II) of the human NaV1.4 channel, residues 554-696, with C660S, C661S and C687S (human) (UniProt P35499). The assay is described as follows: NMR titration; 15N-labeled VSD-II titrated with unlabeled Hm-3 in buffer B with DPC/LDAO micelles (11/11 mM), pH 5.5, 45°C, 800 MHz; chemical shifts fitted with two sites on VSD-II and Hm-3 partitioning to micelles (K M = 90 μM).

Assay [2] concerns the target single A140C mutant of the VSD of KVAP channel. The assay is described as follows: SEC; Superdex 200 in 20-mM Tris-HCl, 150-mM NaCl, pH 5.5, 0.3% DPC, calibrated by Stokes radii; with SDS-PAGE; VSD-KVAP A140C also after 1.5-mM DTT.

As to “gating modifier toxin Hm-3 from the crab spider Heriaeus melloteei (peptide)”, in assay [1], the KD (K V), cytoplasmic binding site is 7 µM and the KD (K V), extracellular binding site stood at 11 µM. Turning to “single A140C mutant of the VSD of KVAP channel (domain or fragment)”, in assay [2], the stoichiometry N amounted to 2.
